Reference: US20200262898A1
Values belong to the binder of their own block, whether it stands above or below them.

Columns and labels:
CD151 = target: T1, CD151 (UniProt P48509); assay: flow cytometry on cells transfected with the target; signal over mock-transfected cells (background = 1.0)
T1 sequence (looked up): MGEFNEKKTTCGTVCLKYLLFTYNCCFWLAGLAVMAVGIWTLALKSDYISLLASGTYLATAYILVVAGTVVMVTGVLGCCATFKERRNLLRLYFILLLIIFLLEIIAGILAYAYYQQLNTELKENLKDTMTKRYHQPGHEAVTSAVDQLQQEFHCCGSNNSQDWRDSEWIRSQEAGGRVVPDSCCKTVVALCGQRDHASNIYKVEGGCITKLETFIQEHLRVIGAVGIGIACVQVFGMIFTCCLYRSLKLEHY

[1] = target: Fc-binding protein (the ZZ domain of ProA); assay: flow cytometry on cells expressing the Fc-binding ZZ domain on their surface; given as a measure of expression
IGSF8 = target: T2, IGSF8 (UniProt Q969P0); assay: flow cytometry on cells transfected with the target; signal over mock-transfected cells (background = 1.0)
T2 sequence (looked up): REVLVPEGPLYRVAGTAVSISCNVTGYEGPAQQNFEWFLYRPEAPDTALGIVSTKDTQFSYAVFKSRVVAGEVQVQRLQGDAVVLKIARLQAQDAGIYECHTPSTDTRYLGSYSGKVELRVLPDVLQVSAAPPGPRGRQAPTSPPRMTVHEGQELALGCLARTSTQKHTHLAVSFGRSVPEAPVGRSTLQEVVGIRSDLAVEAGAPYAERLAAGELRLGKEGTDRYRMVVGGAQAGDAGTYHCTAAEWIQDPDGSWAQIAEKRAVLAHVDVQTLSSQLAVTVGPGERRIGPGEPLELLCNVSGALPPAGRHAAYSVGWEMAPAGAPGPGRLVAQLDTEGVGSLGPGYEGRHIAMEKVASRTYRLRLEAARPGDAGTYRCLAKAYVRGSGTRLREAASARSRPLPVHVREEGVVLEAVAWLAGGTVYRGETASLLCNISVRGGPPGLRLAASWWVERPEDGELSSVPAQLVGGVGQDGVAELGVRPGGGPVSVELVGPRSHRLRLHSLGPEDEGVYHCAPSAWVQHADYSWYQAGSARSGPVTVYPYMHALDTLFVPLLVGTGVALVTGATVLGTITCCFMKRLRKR

CD59 = target: T3, CD59 (UniProt P13987); assay: as above
T3 sequence (looked up): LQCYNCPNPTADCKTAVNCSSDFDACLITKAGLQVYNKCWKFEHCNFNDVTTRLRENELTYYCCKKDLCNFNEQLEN

CD63 = CD63 (UniProt P08962); assay: as above
CD81 = target: T4, CD81 (UniProt P60033); assay: as above
T4 sequence (looked up): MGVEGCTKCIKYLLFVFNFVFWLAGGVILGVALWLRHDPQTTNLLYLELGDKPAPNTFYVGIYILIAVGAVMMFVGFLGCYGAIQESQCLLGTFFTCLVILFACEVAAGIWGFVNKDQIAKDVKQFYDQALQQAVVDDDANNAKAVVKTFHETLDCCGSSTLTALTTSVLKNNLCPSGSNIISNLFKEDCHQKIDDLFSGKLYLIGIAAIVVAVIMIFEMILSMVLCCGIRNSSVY

CD147 = CD147 (UniProt P35613); assay: as above

B3: Antibody of common light chain F10 (F10chicken) paired with the heavy chain against CD59 (antibody, V domains shown)
VH: AVTLDESGGGLQTPGGGLSLVCKASGFDFSSFDMVWVRQAPGKGLEWVAGISYSNTDTSYAPAVDGRATISRDNGQSTVRLQLNNLRAEDSATYYCAKSAGGCCYRADNIDAWGHGTEVIVSS
VL: ALTQPSSVSANPGETVKITCSGGYNGHYGWYQQKSPGSAPVTVIYSNNQRPSNIPSRFSGSTSGSTSTLTITGVRAEDEAVYFCGGYDSSAGIFGAGTTLTVL
- S:B Binding (CD59): 14.6 S:B
- S:B Expression [1]: 12.2 S:B

B4: Antibody of common light chain F10 (F10chicken) paired with the heavy chain against CD63 (antibody, V domains shown)
VH: AVTLDESGGGLQTPGGALSLVCKASGFTFSDRGMHWVRQAPGKGLEWVAGIRSTGSFTLYGAAVKGRATISRDDGQSTLRLQLNNLRAEDTGTYYCAKSAGGYGCGRGWCGVDDIDAWGHGTEVIVSS
VL: B3 VL
- S:B Binding (CD63): 5.2 S:B
- S:B Expression [1]: 15.5 S:B

B5: Antibody of common light chain F10 (F10chicken) paired with the heavy chain against CD81 (antibody, V domains shown)
VH: AVTLDESGGGLQTPGGALSLVCKASGFSIGDYNMGWVRQAPGKGLEWVAGIDAGGGTWRATAVKGRATISRDNGQSTVRLQLNNLRAEDTATYFCAKSTDSSANCCANSIDAWGHGTEVIVSS
VL: B3 VL
- S:B Binding (CD81): 0.4 S:B
- S:B Expression [1]: 11.1 S:B

B6: Antibody of common light chain C11 (C11chicken) paired with the heavy chain against CD147 (antibody, V domains shown)
VH: AVTLDESGGGLQTPGGGLSLVCKASGFTFSSYAMYWVRQAPGKGLQWVAGISRDGSSGRYGAAVKGRATISRDNGQSTVRLQLNNLRAEDTATYFCAKSGYGDYTSADEIDAWGHGTEVIVSS
VL: ALTQPSSVSANPGETVKITCSGGGSWYGSYYYGWYQQKSPGSAPVTLIYNNDKRPSDIPSRFSGSESGSTATLTITGVQAEDEAVYFCGGYDSTTTDMFGAGTTLTVL
- S:B Binding (CD147): 1.4 S:B

B7: Antibody of common light chain B9 (B9chicken) paired with the heavy chain against CD147 (antibody, V domains shown)
VH: B6 VH
VL: ALTQPSSVSANPGETVKITCSGGGSSNYYGWYQQKSPGSAPVTLIYGTNKRPSDIPSRFSGSKSGSTGTLTITGVQADDEAVYFCGSADSSTNAGIFGAGTTLTVL
- S:B Binding (CD147): 10.3 S:B

Next, values leading:

- S:B Binding (CD151): 25.1 S:B
- S:B Expression [1]: 13.7 S:B
B1: Antibody of common light chain F10 (F10chicken) paired with the heavy chain against CD151 (antibody, V domains shown)
VH: AVTLDESGGGLQMPGGALSLVCKASGFTFSSYGMEWVRQAPGKGLEWVAGISSGGGSTDYGTAVKGRATISRDNGQSTVRLQLNNLRAEDTGTYFCAKSAYGGTWDGDDIDAWGHGTEVIVSS
VL: B3 VL

- S:B Binding (IGSF8): 1.6 S:B
- S:B Expression [1]: 11.9 S:B
B2: Antibody of common light chain F10 (F10chicken) paired with the heavy chain against IGSF8 (antibody, V domains shown)
VH: AVTLDESGGGLQTPGGGLSLVCKASGFSISSYEMQWVRQAPGKGLEWVAGIDDDGSSRAYAPAVKGRATISRDNGQSTVRLQLNNLRAEDTGTYYCAKTIYAATLNAGEIDAWGHGTEVIVSS
VL: B3 VL

- S:B Binding (CD147): 5.7 S:B
- S:B Expression [1]: 15.5 S:B
B8: Antibody of common light chain F10 (F10chicken) paired with the heavy chain against CD147 (antibody, V domains shown)
VH: B6 VH
VL: B3 VL
